# From US7964369
# Biological target: bacterial recombinant GST-GRAIL fusion protein, Q9D304
# Sequence (Q9D304 whole entry, looked up, the tested form may be a part): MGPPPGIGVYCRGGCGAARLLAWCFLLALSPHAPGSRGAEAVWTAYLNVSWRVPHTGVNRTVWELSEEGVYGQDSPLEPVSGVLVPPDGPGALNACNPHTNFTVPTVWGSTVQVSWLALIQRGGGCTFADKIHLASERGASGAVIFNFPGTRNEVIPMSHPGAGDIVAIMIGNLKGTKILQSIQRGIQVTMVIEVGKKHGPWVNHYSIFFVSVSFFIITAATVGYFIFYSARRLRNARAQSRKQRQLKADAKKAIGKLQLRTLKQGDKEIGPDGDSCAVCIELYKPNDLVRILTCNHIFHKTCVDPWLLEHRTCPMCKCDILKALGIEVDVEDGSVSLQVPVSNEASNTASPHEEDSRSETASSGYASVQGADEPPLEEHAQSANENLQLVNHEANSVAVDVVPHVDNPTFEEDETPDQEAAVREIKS
protein,measurement,value
USP8 expressed in E. coli (pET28) (protein) MPAVASVPKELYLSSSLKDLNKKTEVKPEKTSTKNYIHSAQKIFKTAEECRLDRDEERAYVLYMKYVAVYNLIKKRPDFKQQQDYYLSILGPANIKKAIEEAERLSESLKLRYEEAEVRKQLEEKDRREEEQLQQQKRQEMGREDSGAAAKRSVENLLDSKTKTQRINGEKSEGAAAAERGAITAKELYTMMMDKNTSLIIMDARKIQDYQHSCILDSLSVPEEAISPGVTASWIEANLSDDSKDTWKKRGSVDYVVLLDWFSSAKDLLLGTTLRSLKDALFKWESKTVLRHEPLVLEGGYENWLLCYPQFTTNAKVTPPPRSRAEEVSVSLDFTYPSLEEPVPSKLPTQMPPPPIETNEKALLVTDQDEKLRLSTQPALAGPGAAPRAEASPIIQPAPATKSVPQVDRTKKPSVKLPEDHRIKSENTDQSGRVLSDRSTKPVFPSPTTMLTDEEKARIHQETALLMEKNKQEKELWDKQQKEQKEKLRREEQERKAGKTQDADERDSTENQHKAKDGQEKKDSKQTKTEDRELSADGAQEATGTQRQSKSEHEASDAKVPVEGKRCPTSEAQKRPADVSPASVSGELNAGKAQREPLTRARSEEMGRIVPGLPLGWAKFLDPITGTFRYYHSPTNTVHMYPPEMAPSSAPPSTPPTHKVKPQVPAERDREPSKLKRSYSSPDITQALQEEEKRRPAVTPMVNRENKPPCYPKAEISRLSASQIRNLNPVFGGSGPALTGLRNLGNTCYMNSILQCLCNAPHLADYFNRNCYQDDINRSNLLGHKGEVAEEFGIIMKALWTGQYRYISPKDFKVTIGKINDQFAGSSQQDSQELLLFLMDGLHEDLNKADNRKRHKEENNEHLDDLQAAEHAWQKHKQLNESIIVALFQGQFKSTVQCLTCRRRSRTFEAFMYLSLPLASTSKCTLQDCLRLFSKEEKLTDNNRFYCSHCRARRDSLKKIEIWKLPPVLLVHLKRFSYDGRWKQKLQTSVDFPLENLDLSQYVIGPKNSLKKYNLFSVSNHYGGLDGGHYTAYCKNAARQRWFKFDDHEVSDISVSSVRSSAAYILFYTSLGPRITDVAT,de-ubiquitination of auto-ubiquitinated GST-GRAIL in vitro,USP8 is capable of de-ubiquitinating GRAIL in vitro
